Results on 7 molecules are retold here after US20110135573A1 (DYAX, published 2011).

For experiment [1], the target named is T1, Human MMP-9 catalytic domain (BIOMOL, SE-244) (human, UniProt P14780 107-457, limits assumed).
T1 construct: domain: catalytic domain; also called Cat-huMMP-9; cat-huMMP-9
Description: Ki,app, enzyme inhibition assay (fluorogenic peptide substrate), IgG.

The target in experiment [2] is T2, Mouse MMP-9 (R&D, 909-MM), APMA-activated (mouse, UniProt P41245 108-730, limits assumed).
T2 construct: also called mMMP-9; mouse MMP-9 (R&D Systems #909-MM-010)
T2 sequence (P41245 108-730 limits assumed): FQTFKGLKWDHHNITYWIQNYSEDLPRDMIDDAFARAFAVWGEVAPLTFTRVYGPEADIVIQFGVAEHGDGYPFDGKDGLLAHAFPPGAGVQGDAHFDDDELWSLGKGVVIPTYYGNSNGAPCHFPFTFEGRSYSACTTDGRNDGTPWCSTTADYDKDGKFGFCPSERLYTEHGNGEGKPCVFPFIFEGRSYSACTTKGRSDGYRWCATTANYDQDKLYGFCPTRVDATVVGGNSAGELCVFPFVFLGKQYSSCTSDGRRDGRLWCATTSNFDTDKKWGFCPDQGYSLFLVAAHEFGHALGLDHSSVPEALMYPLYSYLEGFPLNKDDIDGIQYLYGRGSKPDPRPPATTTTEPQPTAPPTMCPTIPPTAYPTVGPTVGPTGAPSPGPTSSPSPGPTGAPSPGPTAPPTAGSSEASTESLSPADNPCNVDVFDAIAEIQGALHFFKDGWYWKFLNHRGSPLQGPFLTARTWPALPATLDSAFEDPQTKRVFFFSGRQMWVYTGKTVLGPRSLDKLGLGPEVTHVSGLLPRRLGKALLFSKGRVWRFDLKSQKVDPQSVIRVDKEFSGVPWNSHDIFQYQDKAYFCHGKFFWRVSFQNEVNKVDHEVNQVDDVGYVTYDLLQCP
Described as above.

Experiment [3] concerns the target T3, human MMP-2 (Biomol #SE-237) (human, UniProt P08253 110-452, limits assumed).
T3 construct: also called hMMP-2
The description is as above.

Experiment [4] deals with T1, Human MMP-9 catalytic domain (BIOMOL, …). Nature of the experiment: Ki,app, enzyme inhibition assay (fluorogenic peptide substrate), small-scale sFab. As for the experimental part:
(§1) Target enzymes were incubated with inhibitor for two hours at 30° C. in reaction buffer (50 mM Tris-HCl pH 7.5, 150 mM NaCl, 5 mM CaCl₂, 0.05% Brij-35) in a total volume of 90 μL using a white 96 well plate (Costar). […] An anti-MMP-2 antibody (R&D Systems polyclonal IgG #AF902) was similarly tested with 200 nM as the highest inhibitor concentration. Reactions were initiated by the addition of 10 μL of a 10× concentrated stock of substrate, Mca-Lys-Pro-Leu-Gly-Leu-Dap(Dnp)-Ala-Arg-NH2, (Bachem M-2350), at final concentration of 10 μM and monitored at 30° C. in a Molecular Devices' Gemini fluorescence plate reader. The excitation and emission wavelengths were set at 328 nm and 393 nm, respectively. Kinetic data were acquired by the increase in fluorescence, and initial rates for each condition were plotted against the total inhibitor concentration. Reactions were performed in duplicates and all data replicates were plotted in a single graph and fit to the following equation¹: […]

Experiment [5] shares this target. Nature of the experiment: Ki,app, enzyme inhibition assay (fluorogenic peptide substrate), medium-scale sFab. As for the experimental part:
as §1

Experiment [6] deals with T2, Mouse MMP-9 (R&D, 909-MM), …. The experiment is described as above. As for the experimental part:
as §1

Experiment [7] concerns the target T3, human MMP-2 (Biomol #SE-237). The experiment is described as above. As for the experimental part: as §1
In experiment [8] the target is T2, Mouse MMP-9 (R&D, 909-MM), …. Nature of the experiment: Ki,app, enzyme inhibition assay (fluorogenic peptide substrate), small-scale sFab. As for the experimental part: as §1
Experiment [9] addresses T3, human MMP-2 (Biomol #SE-237). The experiment is described as above. As for the experimental part:
as §1

Changes are numbered by the printed parent chain.

T3 sequence (P08253 110-452 limits assumed): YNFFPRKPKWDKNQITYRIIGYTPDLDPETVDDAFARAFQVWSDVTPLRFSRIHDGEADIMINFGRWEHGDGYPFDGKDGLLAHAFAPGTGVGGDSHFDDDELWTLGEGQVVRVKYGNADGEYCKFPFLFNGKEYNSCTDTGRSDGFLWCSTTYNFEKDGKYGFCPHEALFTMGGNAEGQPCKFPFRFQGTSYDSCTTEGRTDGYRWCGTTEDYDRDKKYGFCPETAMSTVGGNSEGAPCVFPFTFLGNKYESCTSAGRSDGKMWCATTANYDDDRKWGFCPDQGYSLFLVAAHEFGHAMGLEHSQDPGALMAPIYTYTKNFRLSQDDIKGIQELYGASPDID
T1 sequence (P14780 107-457 limits assumed): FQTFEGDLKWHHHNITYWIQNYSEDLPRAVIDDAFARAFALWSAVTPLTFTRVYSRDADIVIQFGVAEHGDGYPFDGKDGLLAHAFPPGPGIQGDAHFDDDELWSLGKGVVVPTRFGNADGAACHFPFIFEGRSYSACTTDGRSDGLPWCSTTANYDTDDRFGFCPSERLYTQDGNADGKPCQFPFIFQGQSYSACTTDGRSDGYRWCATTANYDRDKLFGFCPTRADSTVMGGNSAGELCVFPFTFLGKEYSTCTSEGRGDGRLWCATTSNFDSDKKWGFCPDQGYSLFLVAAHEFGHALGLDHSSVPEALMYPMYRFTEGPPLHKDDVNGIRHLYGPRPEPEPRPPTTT

B1: X0106-F05 (antibody, V domains shown)
VH: EVQLLESGGGLVQPGGSLRLSCAASGFTFSLYDMWWVRQAPGKGLEWVSVIYSSGGYTGYADSVKGRFTISRDNSKNTLYLQMNSLRAEDTAVYYCAKDRAYGDYVGWNGFDYWGQGTLVTVSS
VL: EIVLTQSPATLSLSPGERATLSCRASQSISSFLAWYQQKPGQAPRLLIYDASYRATGIPARFSGSGSGTDFTLTISSLEPEDFAVYYCQQRGNWPITFGQGTRLEIK
notes: Produced and tested as IgG1; germlined, optimized version of M0307-F04
Take B1: the Ki in experiment [1] is 0.15 nM; in [2], 0.1 nM; in experiment [3] it was 0.3 nM.

B2: M0256-D11 (Fab, V domains shown)
VH: B1 VH with L31H, Y57P, G59F
VL: B1 VL with E1D, V3Q, L4M, F83Y
notes: sFab; variable domains only; also called M256-D11; 539A-M0256-D11
Turning to B2, the Ki in experiment [4] amounted to 0.3 nM; in experiment [5] it was 0.3 nM; in experiment [6] it was 0.6 nM; in [7], 0.5 nM.

B3: M0275-D03 (Fab, V domains shown)
VH: EVQLLESGGGLVQPGGSLRLSCAASGFTFSQYDMWWVRQAPGKGLEWVSVIYPSGTTFYADSVKGRFTISRDNSKNTLYLQMNSLRAEDTAVYYCAKDRAYGDYVGWNGFDYWGQGTLVTVSS
VL: B1 VL with E1D, V3Q, L4M, F83Y
notes: sFab; variable domains only; also called M275-D03
As to B3, the Ki in [4] was found to be 0.6 nM; in [8], 1.2 nM; in [9], 0.7 nM; in experiment [5] it was 0.6 nM; in [6] it was 1 nM; in experiment [7] it was 0.5 nM.

B4: X0106-E04 (antibody, V domains shown)
VH: B3 VH
VL: B1 VL
notes: Produced and tested as IgG1; germlined, optimized version of M0275-D03; also called X0106-E4
B4: the Ki worked out at 0.13 nM in experiment [1], 0.23 nM in experiment [2] and 0.38 nM in experiment [3].

B5: M0276-F11 (Fab, V domains shown)
VH: B1 VH with L31W, Y57P, G59F
VL: B1 VL with E1D, V3Q, L4M, F83Y
notes: sFab; variable domains only; also called M276-F11
For the molecule B5, the Ki in experiment [4] was found to be 0.2 nM; in experiment [8], 0.4 nM; in experiment [9], 0.2 nM; in experiment [5] it was 0.4 nM; in experiment [6] it was 0.6 nM; in experiment [7], 0.4 nM.

B6: M0307-F04 (Fab, V domains shown)
VH: B1 VH
VL: B1 VL with E1D, V3Q, L4M, F83Y
notes: sFab; variable domains only; also called M307-F04
On to B6, for which the Ki came to 0.1 nM in experiment [4]; 0.1 nM in [8]; 0.1 nM in experiment [9]; 0.8 nM in [5]; 0.4 nM in experiment [6]; 0.4 nM in experiment [7].

B7: M0274-G08 (Fab, V domains shown)
VH: B1 VH with L31V, S53P, Y57A, G59Y
VL: B1 VL with E1D, V3Q, L4M, F83Y
notes: sFab; variable domains only; also called M274-G08
As for B7, the Ki in experiment [4] was 0.6 nM; in experiment [5] it was 0.5 nM; in [6], 0.6 nM; in experiment [7], 0.4 nM.
